Laboratory results taken from patent US20260167699A1 (Chugai, published 2026).
Residue numbers refer to the chain shown, from its start.

B1: GpH7-A5/GpH7-B3 variant P238_10E/GpL16-k0 (antibody, human IgG1, kappa)
heavy 1: not shown
heavy 2: not shown
light: DIVMTQSPLSLPVTPGEPASISCQASESLVHSNRNTYLHWYLQKPGQSPQLLIYKVSNRFSGVPDRFSGSGSGTDFTLKISRVEAEDVGVYYCSQNTHVPPTFGQGTKVEIERTVAAPSVFIFPPSDEQLKSGTASVVCLLNNFYPREAKVQWKVDNALQSGNSQESVTEQDSKDSTYSLSSTLTLSKADYEKHKVYACEVTHQGLSSPVTKSFNRGEC
notes: heterodimerized IgG1, one H chain mutated; also called He Ab
B2: GpH7-A5/GpH7-B3 variant V266_02A/GpL16-k0 (antibody, human IgG1, kappa)
heavy 1: not shown
heavy 2: not shown
light: B1 light
notes: as for B1
B3: GpH7-A5/GpH7-B3 variant S267_01G/GpL16-k0 (antibody, human IgG1, kappa)
heavy 1: not shown
heavy 2: not shown
light: B1 light
notes: as for B1
B4: GpH7-A5/GpH7-B3 variant S239_14T/GpL16-k0 (antibody, human IgG1, kappa)
heavy 1: not shown
heavy 2: not shown
light: B1 light
notes: as for B1
B5: GpH7-A5/GpH7-B3 variant P238_15Y/GpL16-k0 (antibody, human IgG1, kappa)
heavy 1: not shown
heavy 2: not shown
light: B1 light
notes: as for B1
B6: GpH7-A5/GpH7-B3 variant S239_07I/GpL16-k0 (antibody, human IgG1, kappa)
heavy 1: not shown
heavy 2: not shown
light: B1 light
notes: as for B1
B7: GpH7-A5/GpH7-B3 variant P271_15Y/GpL16-k0 (antibody, human IgG1, kappa)
heavy 1: not shown
heavy 2: not shown
light: B1 light
notes: as for B1
B8: GpH7-A5/GpH7-B3 variant S239_09D/GpL16-k0 (antibody, human IgG1, kappa)
heavy 1: not shown
heavy 2: not shown
light: B1 light
notes: as for B1
B9: GpH7-A5/GpH7-B3 variant S267_09D/GpL16-k0 (antibody, human IgG1, kappa)
heavy 1: not shown
heavy 2: not shown
light: B1 light
notes: as for B1
B10: GpH7-A5/GpH7-B3 variant P271_16H/GpL16-k0 (antibody, human IgG1, kappa)
heavy 1: not shown
heavy 2: not shown
light: B1 light
notes: as for B1
B11: GpH7-A5/GpH7-B3 variant S267_19Q/GpL16-k0 (antibody, human IgG1, kappa)
heavy 1: not shown
heavy 2: not shown
light: B1 light
notes: as for B1
B12: GpH7-A5/GpH7-B3 variant S239_08L/GpL16-k0 (antibody, human IgG1, kappa)
heavy 1: not shown
heavy 2: not shown
light: B1 light
notes: as for B1
B13: GpH7-A5/GpH7-B3 variant V266_06M/GpL16-k0 (antibody, human IgG1, kappa)
heavy 1: not shown
heavy 2: not shown
light: B1 light
notes: as for B1
B14: GpH7-A5/GpH7-B3 variant P271_04F/GpL16-k0 (antibody, human IgG1, kappa)
heavy 1: not shown
heavy 2: not shown
light: B1 light
notes: as for B1
B15: GpH7-A5/GpH7-B3 variant S239_10E/GpL16-k0 (antibody, human IgG1, kappa)
heavy 1: not shown
heavy 2: not shown
light: B1 light
notes: as for B1
B16: GpH7-A5/GpH7-B3 variant S239_06M/GpL16-k0 (antibody, human IgG1, kappa)
heavy 1: not shown
heavy 2: not shown
light: B1 light
notes: as for B1
B17: GpH7-A5/GpH7-B3 variant V266_07I/GpL16-k0 (antibody, human IgG1, kappa)
heavy 1: not shown
heavy 2: not shown
light: B1 light
notes: as for B1
B18: GpH7-A5/GpH7-B3 variant P271_14T/GpL16-k0 (antibody, human IgG1, kappa)
heavy 1: not shown
heavy 2: not shown
light: B1 light
notes: as for B1
B19: GpH7-A5/GpH7-B3 variant P238_19Q/GpL16-k0 (antibody, human IgG1, kappa)
heavy 1: not shown
heavy 2: not shown
light: B1 light
notes: as for B1
B20: GpH7-A5/GpH7-B3 variant V266_08L/GpL16-k0 (antibody, human IgG1, kappa)
heavy 1: not shown
heavy 2: not shown
light: B1 light
notes: as for B1
B21: GpH7-A5/GpH7-B3 variant S267_10E/GpL16-k0 (antibody, human IgG1, kappa)
heavy 1: not shown
heavy 2: not shown
light: B1 light
notes: as for B1
B22: GpH7-A5/GpH7-B3 variant S267_02A/GpL16-k0 (antibody, human IgG1, kappa)
heavy 1: not shown
heavy 2: not shown
light: B1 light
notes: as for B1
B23: GpH7-A5/GpH7-B3 variant S239_19Q/GpL16-k0 (antibody, human IgG1, kappa)
heavy 1: not shown
heavy 2: not shown
light: B1 light
notes: as for B1
B24: GpH7-A5/GpH7-B3 variant S239_18N/GpL16-k0 (antibody, human IgG1, kappa)
heavy 1: not shown
heavy 2: not shown
light: B1 light
notes: as for B1
B25: GpH7-A5/GpH7-B3 variant S239_02A/GpL16-k0 (antibody, human IgG1, kappa)
heavy 1: not shown
heavy 2: not shown
light: B1 light
notes: as for B1
B26: GpH7-A5/GpH7-B3 variant S239_01G/GpL16-k0 (antibody, human IgG1, kappa)
heavy 1: not shown
heavy 2: not shown
light: B1 light
notes: as for B1
B27: GpH7-A5/GpH7-B3 variant S239_03V/GpL16-k0 (antibody, human IgG1, kappa)
heavy 1: not shown
heavy 2: not shown
light: B1 light
notes: as for B1
B28: GpH7-A5/GpH7-B3 variant Q295_12R/GpL16-k0 (antibody, human IgG1, kappa)
heavy 1: not shown
heavy 2: not shown
light: B1 light
notes: heterodimerized IgG1, one H chain mutated; also called He Ab; copies: 1 + 1 + 2
B29: GpH7-A5/GpH7-B3 variant P271_02A/GpL16-k0 (antibody, human IgG1, kappa)
heavy 1: not shown
heavy 2: not shown
light: B1 light
notes: as for B28
B30: GpH7-A5/GpH7-B3 variant P271_01G/GpL16-k0 (antibody, human IgG1, kappa)
heavy 1: not shown
heavy 2: not shown
light: B1 light
notes: as for B28

What follows are binders tested against T1, FcγRIIa(H) (human, UniProt P12318 34-217) (assay: SPR (Biacore), binding relative to GpH7-A5/GpH7-B3/GpL16-k0 x100;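 further: surface plasmon resonance at 25 °C, antibody captured on a sensor chip and soluble FcγR flowed over it in HBS-EP+ running buffer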).
T1 construct: extracellular domain; also called FcγRIIa H type; 2aH
T1 sequence: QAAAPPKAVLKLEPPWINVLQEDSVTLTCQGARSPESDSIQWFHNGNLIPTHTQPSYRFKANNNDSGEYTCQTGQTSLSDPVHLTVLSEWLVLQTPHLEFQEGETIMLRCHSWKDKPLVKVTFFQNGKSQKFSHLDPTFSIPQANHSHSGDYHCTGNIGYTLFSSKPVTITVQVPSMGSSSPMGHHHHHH
Experimental: (§1) The antibody of interest was analyzed for its interaction with FcγR using a BiaCore™ T100, BiaCore™ A100, or BiaCore™ 4000 surface plasmon resonance system (GE Healthcare Japan Corp.). The running buffer used was HBS-EP+ (GE Healthcare Japan Corp.). The assay temperature was set to 25° C. The sensor chips used were: a chip prepared by immobilizing antigenic peptides onto Series S Sensor Chip CM5 (GE Healthcare Japan Corp.) by the amine coupling method; a chip prepared by immobilizing antigenic peptides biotinylated in advance onto Series S Sensor Chip SA (certified) (GE Healthcare Japan Corp.) through their interaction; a chip prepared by immobilizing protein L (ACTIGEN, BioVision, Inc.) onto Series S Sensor Chip CM5 (GE Healthcare Japan Corp.); and a chip prepared by immobilizing protein A/G (Thermo Fisher Scientific K.K.) onto Series S Sensor Chip CM5 (GE Healthcare Japan Corp.). The antibody of interest was captured onto any of these chips and allowed to interact with FcγR diluted with a running buffer. The antibody captured on the chip was washed off through the reaction of 10 mM glycine-HCl (pH 1.5) to regenerate the chip, which was repetitively used.

| Binder | He/Con 2aH [%] |
| --- | --- |
| B1 | 74.6 |
| B2 | 69.7 |
| B3 | 72.1 |
| B4 | 95.9 |
| B5 | 57.8 |
| B6 | 88.5 |
| B7 | 74 |
| B8 | 111 |
| B9 | 107 |
| B10 | 76.4 |
| B11 | 61.9 |
| B12 | 101 |
| B13 | 84.8 |
| B14 | 77.1 |
| B15 | 108 |
| B16 | 95.4 |
| B17 | 107 |
| B18 | 69.8 |
| B19 | 54.5 |
| B20 | 106 |
| B21 | 103 |
| B22 | 121 |
| B23 | 80 |
| B24 | 91.1 |
| B25 | 89.9 |
| B26 | 93.8 |
| B27 | 88 |

What follows are binders tested against T2, FcγRIa (human, UniProt P12314 16-292) in the same assay as above.
T2 construct: extracellular domain; also called 1a
T2 sequence (P12314 other isoform, or with tags, fused parts or gaps): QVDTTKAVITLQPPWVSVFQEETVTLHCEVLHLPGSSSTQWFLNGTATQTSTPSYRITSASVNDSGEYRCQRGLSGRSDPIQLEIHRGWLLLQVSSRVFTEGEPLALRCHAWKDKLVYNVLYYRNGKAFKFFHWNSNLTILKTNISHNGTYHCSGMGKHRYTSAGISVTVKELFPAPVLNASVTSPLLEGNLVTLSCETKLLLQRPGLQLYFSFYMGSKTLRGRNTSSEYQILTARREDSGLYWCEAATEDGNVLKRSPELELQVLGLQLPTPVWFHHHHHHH
Experimental: as §1

| Binder | He/Con 1a [%] |
| --- | --- |
| B1 | 105 |
| B2 | 93.8 |
| B3 | 99.9 |
| B4 | 104 |
| B5 | 104 |
| B6 | 101 |
| B7 | 101 |
| B8 | 104 |
| B9 | 106 |
| B10 | 100 |
| B11 | 99.2 |
| B12 | 103 |
| B13 | 96.5 |
| B14 | 100 |
| B15 | 108 |
| B16 | 102 |
| B17 | 96.1 |
| B18 | 101 |
| B19 | 101 |
| B20 | 94.9 |
| B21 | 102 |
| B22 | 105 |
| B23 | 104 |
| B24 | 104 |
| B25 | 103 |
| B26 | 104 |
| B27 | 98.9 |

These binders were tested against T3, FcγRIIa(R) (human, UniProt P12318 34-217) in the same assay as above.
T3 construct: extracellular domain; also called FcγRIIa R type; 2aR
T3 sequence: T1 sequence with H134R
Experimental: as §1

| Binder | He/Con 2aR [%] |
| --- | --- |
| B1 | 142 |
| B2 | 88.8 |
| B3 | 121 |
| B4 | 97.4 |
| B5 | 147 |
| B6 | 95.9 |
| B7 | 70 |
| B8 | 129 |
| B9 | 186 |
| B10 | 79 |
| B11 | 145 |
| B12 | 114 |
| B13 | 161 |
| B14 | 75.2 |
| B15 | 127 |
| B16 | 94.7 |
| B17 | 129 |
| B18 | 94.7 |
| B19 | 97.8 |
| B20 | 152 |
| B21 | 188 |
| B22 | 167 |
| B23 | 79.8 |
| B24 | 104 |
| B25 | 89.8 |
| B26 | 120 |
| B27 | 94.1 |

What follows are binders tested against T4, FcγRIIb (human, UniProt P31994 43-217) in the same assay as above.
T4 construct: extracellular domain; also called 2b
T4 sequence: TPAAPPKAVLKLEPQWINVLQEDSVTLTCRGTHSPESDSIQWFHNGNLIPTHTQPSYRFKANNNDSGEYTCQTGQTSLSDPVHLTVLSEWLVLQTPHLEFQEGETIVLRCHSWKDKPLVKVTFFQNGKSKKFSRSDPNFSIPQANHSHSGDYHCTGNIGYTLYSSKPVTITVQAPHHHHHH
Experimental: as §1

| Binder | He/Con 2b [%] |
| --- | --- |
| B1 | 235 |
| B2 | 85.1 |
| B3 | 110 |
| B4 | 98.6 |
| B5 | 221 |
| B6 | 108 |
| B7 | 58.6 |
| B8 | 209 |
| B9 | 326 |
| B10 | 76.2 |
| B11 | 228 |
| B12 | 142 |
| B13 | 264 |
| B14 | 66.7 |
| B15 | 183 |
| B16 | 102 |
| B17 | 160 |
| B18 | 107 |
| B19 | 112 |
| B20 | 248 |
| B21 | 398 |
| B22 | 256 |
| B23 | 87.3 |
| B24 | 121 |
| B25 | 91.6 |
| B26 | 146 |
| B27 | 110 |

The binders below were run against T5, FcγRIIa(H) extracellular domain, C-terminal His tag (human, UniProt P12318 34-217) (assay: SPR; He Ab vs HeCon Ab (GpH7-A5/GpH7-B3/GpL16-k0)=100;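 further: surface plasmon resonance at 25 °C with the test antibody captured on a sensor chip via antigenic peptide, protein L or protein A/G and FcγR flowed over as analyte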).
T5 construct: extracellular domain; also called 2aH
T5 sequence: T1 sequence
Experimental: as §1

| Binder | He/Con 2aH [%] |
| --- | --- |
| B28 | 96.4 |
| B29 | 88.4 |
| B30 | 123 |

The binders below were run against T6, FcγRIIIa extracellular domain, C-terminal His tag (human, UniProt P08637 17-208) in the same assay as above.
T6 construct: extracellular domain; also called 3a
T6 sequence (P08637 other isoform, or with tags, fused parts or gaps): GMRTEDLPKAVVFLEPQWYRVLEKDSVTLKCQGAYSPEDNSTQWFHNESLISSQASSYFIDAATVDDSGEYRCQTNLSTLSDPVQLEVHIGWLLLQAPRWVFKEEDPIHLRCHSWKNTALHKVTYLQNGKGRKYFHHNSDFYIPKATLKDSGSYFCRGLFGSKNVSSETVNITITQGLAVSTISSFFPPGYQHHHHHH
Experimental: as §1

| Binder | He/Con 3a [%] |
| --- | --- |
| B28 | 73.2 |
| B29 | 83.7 |
| B30 | 119 |

These binders were tested against T7, FcγRIa extracellular domain, C-terminal His tag (human, UniProt P12314 16-292) in the same assay as above.
T7 construct: extracellular domain; also called 1a
T7 sequence (P12314 other isoform, or with tags, fused parts or gaps): as the sequence (P12314 other isoform, or with tags, fused parts or gaps) above
Experimental: as §1

| Binder | He/Con 1a [%] |
| --- | --- |
| B28 | 98.8 |
| B29 | 102 |
| B30 | 103 |

Each binder was assayed against T8, FcγRIIa(R) extracellular domain, C-terminal His tag (human, UniProt P12318 34-217) in the same assay as above.
T8 construct: extracellular domain; also called 2aR
T8 sequence: T1 sequence with H134R
Experimental: as §1

| Binder | He/Con 2aR [%] |
| --- | --- |
| B28 | 82.2 |
| B29 | 93.9 |
| B30 | 143 |

The binders below were run against T9, FcγRIIb extracellular domain, C-terminal His tag (human, UniProt P31994 43-217) in the same assay as above.
T9 construct: extracellular domain; also called 2b
T9 sequence: T4 sequence
Experimental: as §1

| Binder | He/Con 2b [%] |
| --- | --- |
| B28 | 73.1 |
| B29 | 98.7 |
| B30 | 217 |
